Test results reported in the supplement of paper PMC10126150.
± gives the standard deviation of the averaged measurements.

Tested on: ATP
Test: switch fluorescence ratio, 500 uM ATP over buffer (Cy3 cluster intensity, sum of 5 cycles each) (fold (ratio)); higher = stronger signal-on switching upon ATP binding; sequences stand for … in TCGTCGGCAGCGTCAGATGTGTATAAGAGACAGTTTTTTTTTTTTTTTTTTTTTTTTT…TC
Details: aptamer strand: ATP DNA aptamer (quencher-CACCTGGGGGAGTATTGCGGAGGAAGG + anchor), 100 nM annealed; ATP concentration: 500 uM
How it was run: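 Five buffer/ATP imaging cycles were run on Cy3-labelled switching-strand clusters on a modified Illumina MiSeq flow-cell, with NaOH stripping and re-annealing between cycles. In each cycle, clusters annealed to 100 nM quencher-labelled ATP aptamer were imaged in selection buffer, then after 15 min with 500 uM ATP at 22 °C. Per cluster, the fluorescence ratio is summed target-cycle over summed buffer-cycle Cy3 intensity, averaged per switch-domain sequence. Only clusters within 100-1000 RFU were kept.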
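Further: ATP exposure 15 min at 22 °C before imaging.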

Sequence	switch fluorescence ratio
ATGACTTCGG	0.99 ± 0.028
ATGAGAATTA	1.006 ± 0.0023
ATGAGAATTT	1.01 ± 0.049
ATGAGAGGTT	0.994 ± 0.049
ATGAGCCAGT	1.003 ± 0.004
ATGAGCGGCG	0.9917 ± 0.0012
ATGAGCTATT	1.03 ± 0.027
ATGAGGAAGT	0.987 ± 0.023
ATGAGGAATG	1.008 ± 0.0043
ATGAGGAGGG	1.02 ± 0.023
ATGAGGCATT	1.04 ± 0.016
ATGAGGCCGG	1.12 ± 0.066
ATGAGGGCTT	0.981 ± 0.055
ATGAGGGGAG	0.997 ± 0.013
ATGAGGGGGG	0.986 ± 0.031
ATGAGGGT	1.01 ± 0.015
ATGAGGTTGG	0.973 ± 0.055
ATGAGTAAGG	0.991 ± 0.013
ATGAGTAGGA	1.017 ± 0.0061
ATGAGTATGT	0.9961 ± 0.0014
ATGAGTCATT	0.987 ± 0.026
ATGAGTGCTT	0.9776 ± 0.0075
ATGATAATGT	0.985 ± 0.014
ATGATAGAGG	0.991 ± 0.025
ATGATATCTC	1.02 ± 0.047

Sequence	switch fluorescence ratio
ATGATCGGAT	0.977 ± 0.051
ATGATGAATA	0.949 ± 0.017
ATGATGCGTG	0.981 ± 0.015
ATGATGGGGG	0.984 ± 0.027
ATGATGTGGT	0.992 ± 0.022
ATGATTAATT	1.03 ± 0.017
ATGATTCGTG	0.972 ± 0.028
ATGATTGATG	1.02 ± 0.019
ATGATTGCGT	0.991 ± 0.018
ATGATTGGCA	0.99 ± 0.026
ATGATTTACT	1.02 ± 0.02
ATGATTTCGT	0.9793 ± 0.0085
ATGATTTGGG	1.01 ± 0.011
ATGCAAGGGC	1.08 ± 0.024
ATGCAAGGTT	1.01 ± 0.018
ATGCAATCAT	1.038 ± 0.0026
ATGCAATGTC	1.38 ± 0.22
ATGCACGAAG	1 ± 0.057
ATGCACGGGC	1.01 ± 0.047
ATGCACTGCT	1.04 ± 0.021
ATGCAGGTCC	1.03 ± 0.037
ATGCAGTATT	1.03 ± 0.025
ATGCATTAAG	0.992 ± 0.051
ATGCCATGTG	1 ± 0.022
ATGCCATTAA	0.9718 ± 0.0018

Sequence	switch fluorescence ratio
ATGCCCAGCT	1.0068 ± 0.00025
ATGCGAGCGG	0.985 ± 0.014
ATGCGATTTG	1 ± 0.057
ATGCGCACCG	1.05 ± 0.023
ATGCGCAGAT	1.046 ± 0.0063
ATGCGCTAAT	1.07 ± 0.013
ATGCGCTCTA	0.992 ± 0.018
ATGCGGTTTT	0.986 ± 0.03
ATGCTAGTTG	0.98924 ± 0.0007
ATGCTGAGGA	0.977 ± 0.042
ATGCTGGTAT	0.981 ± 0.024
ATGCTGGTTA	0.996 ± 0.016
ATGCTTAGTT	1.03 ± 0.051
ATGCTTATGG	0.994 ± 0.037
ATGCTTATTG	0.973 ± 0.015
ATGCTTGAAC	1.037 ± 0.0095
ATGCTTTCAG	0.983 ± 0.012
ATGGAAAATG	1.04 ± 0.037
ATGGAACGGA	1.03 ± 0.027
ATGGAAGGAT	1.005 ± 0.0065
ATGGAATAAG	0.998 ± 0.028
ATGGACGCCT	1.01 ± 0.037
ATGGACGTGT	0.9935 ± 0.0033
ATGGACTAGG	1.02 ± 0.022
ATGGAGAGGG	0.987 ± 0.037

Sequence	switch fluorescence ratio
ATGGAGATAG	1.01 ± 0.026
ATGGAGCTTG	0.983 ± 0.02
ATGGAGGCAA	1.37 ± 0.12
ATGGAGGCTT	0.975 ± 0.018
ATGGAGGGAC	1.48 ± 0.66
ATGGAGGGCA	1.03 ± 0.049
ATGGAGGGGT	1 ± 0.045
ATGGAGGTAG	0.995 ± 0.027
ATGGAGGTCT	1.01 ± 0.055
ATGGATAT	0.98 ± 0.031
ATGGATCCGG	1.03 ± 0.083
ATGGATGATG	0.991 ± 0.018
ATGGATGCGT	0.967 ± 0.015
ATGGATGGGG	0.998 ± 0.028
ATGGATTTT	1.001 ± 0.0019
ATGGCAGCAT	1.012 ± 0.0057
ATGGCCAGCA	1.01 ± 0.03
ATGGCCGGCC	1.01 ± 0.02
ATGGCCGGGA	0.999 ± 0.016
ATGGCCTATA	1.01 ± 0.028
ATGGCTGTGG	0.9852 ± 0.0085
ATGGCTTAGC	0.983 ± 0.015
ATGGGAAACG	0.995 ± 0.014
ATGGGAATTT	0.996 ± 0.028
ATGGGACGGG	1 ± 0.019

Sequence	switch fluorescence ratio
ATGGGACGTT	0.983 ± 0.037
ATGGGAGATG	0.983 ± 0.0045
ATGGGAGGAT	1.018 ± 0.0027
ATGGGAGGGT	0.997 ± 0.061
ATGGGCGAAC	1.63 ± 0.82
ATGGGCGGGG	0.9947 ± 0.0065
ATGGGCTATA	1.03 ± 0.094
ATGGGCTCAG	1.005 ± 0.0033
ATGGGCTCCG	0.974 ± 0.015
ATGGGCTGAG	0.992 ± 0.017
ATGGGCTGG	0.975 ± 0.031
ATGGGCTTCT	1.018 ± 0.0091
ATGGGCTTGC	0.994 ± 0.083
ATGGGGACTT	0.979 ± 0.035
ATGGGGAGCG	0.992 ± 0.031
ATGGGGATAC	1.06 ± 0.026
ATGGGGCTTG	1.05 ± 0.099
ATGGGGGAGC	0.981 ± 0.011
ATGGGGGATA	0.973 ± 0.041
ATGGGGGTGC	0.99 ± 0.026
ATGGGGTAAT	1.01 ± 0.028
ATGGGGTCTG	1.05 ± 0.095
ATGGGGTGTA	1 ± 0.03
ATGGGGTGTT	1 ± 0.024
ATGGGTCAAT	1 ± 0.014

Sequence	switch fluorescence ratio
ATGGGTCTCT	0.997 ± 0.017
ATGGGTCTGC	1.16 ± 0.31
ATGGGTGATC	1.01 ± 0.011
ATGGGTGGG	0.965 ± 0.032
ATGGGTGTAC	1.01 ± 0.016
ATGGGTGTCC	1.004 ± 0.0056
ATGGTACACC	1.04 ± 0.013
ATGGTAGCTT	1 ± 0.024
ATGGTAGGGG	0.986 ± 0.014
ATGGTAGGTG	1.04 ± 0.083
ATGGTATCAG	1.007 ± 0.0084
ATGGTATGGT	0.9855 ± 0.0081
ATGGTCAGGG	0.987 ± 0.026
ATGGTCGGAT	0.9804 ± 0.0098
ATGGTCGGTC	0.989 ± 0.036
ATGGTGAATT	1.016 ± 0.0044
ATGGTGCGGG	1.02 ± 0.033
ATGGTGGGAG	0.992 ± 0.0061
ATGGTTAGGT	1.02 ± 0.029
ATGGTTCCTG	1.03 ± 0.078
ATGGTTTAA	1 ± 0.044
ATGGTTTACG	1.05 ± 0.077
ATGGTTTTGT	0.959 ± 0.022
ATGGTTTTTT	1 ± 0.032
ATGTAAAGAC	1.05 ± 0.04

Sequence	switch fluorescence ratio
ATGTAAAGCA	1.02 ± 0.036
ATGTAAAGGT	1.04 ± 0.058
ATGTAAATGC	0.995 ± 0.02
ATGTAACATG	1 ± 0.027
ATGTAAGTGC	0.967 ± 0.064
ATGTAATATA	1.02 ± 0.06
ATGTAATATT	1.01 ± 0.033
ATGTAATCAT	1.01 ± 0.024
ATGTAATTTA	1 ± 0.017
ATGTACGATA	1.14 ± 0.043
ATGTAGCATT	1.21 ± 0.0026
ATGTAGCTGG	1.07 ± 0.033
ATGTAGGGGA	1.0051 ± 0.001
ATGTAGGGGC	1.03 ± 0.046
ATGTAGGTGA	1.03 ± 0.017
ATGTAGTCGC	1.004 ± 0.0012
ATGTAGTTAT	0.996 ± 0.048
ATGTAGTTCG	0.981 ± 0.03
ATGTATACTT	1.09 ± 0.14
ATGTATAGCC	0.995 ± 0.036
ATGTATAGGA	0.992 ± 0.029
ATGTATATGC	1.08 ± 0.069
ATGTATCAGG	1.03 ± 0.022
ATGTATTTTG	0.967 ± 0.049
ATGTCAAGGC	1.05 ± 0.052

Sequence	switch fluorescence ratio
ATGTCACTGT	1.01 ± 0.043
ATGTCATAAA	1.0269 ± 0.0006
ATGTCATGGG	0.998 ± 0.032
ATGTCCAGGG	1.21 ± 0.04
ATGTCCGAAT	1.02 ± 0.012
ATGTCTTGAT	0.963 ± 0.014
ATGTGAGGGA	0.991 ± 0.02
ATGTGATGAA	0.973 ± 0.019
ATGTGATGGC	0.981 ± 0.019
ATGTGCCGTC	1.04 ± 0.048
ATGTGCTTGG	1.02 ± 0.027
ATGTGGAGTC	1.05 ± 0.063
ATGTGGATGC	0.98 ± 0.045
ATGTGGATGG	0.976 ± 0.023
ATGTGGCCGG	0.997 ± 0.024
ATGTGGCCTA	0.986 ± 0.034
ATGTGGCTTA	0.989 ± 0.022
ATGTGGGCTG	0.979 ± 0.045
ATGTGGGTAC	1.02 ± 0.026
ATGTGGGTAT	1.028 ± 0.0068
ATGTGGGTTT	0.974 ± 0.021
ATGTGGTCGC	0.9972 ± 0.0016
ATGTGTAAAC	1.01 ± 0.038
ATGTGTAACC	1 ± 0.039
ATGTGTAGGC	1.02 ± 0.026
